Laboratory results reported in IntAct's records for PubMed 20498078.

Experiments:
pcd15_mouse Pcdh15 = pcd15_mouse Pcdh15 (UniProt Q99PJ1)
pcd15_mouse Pcdh15, sequence (Q99PJ1 whole entry): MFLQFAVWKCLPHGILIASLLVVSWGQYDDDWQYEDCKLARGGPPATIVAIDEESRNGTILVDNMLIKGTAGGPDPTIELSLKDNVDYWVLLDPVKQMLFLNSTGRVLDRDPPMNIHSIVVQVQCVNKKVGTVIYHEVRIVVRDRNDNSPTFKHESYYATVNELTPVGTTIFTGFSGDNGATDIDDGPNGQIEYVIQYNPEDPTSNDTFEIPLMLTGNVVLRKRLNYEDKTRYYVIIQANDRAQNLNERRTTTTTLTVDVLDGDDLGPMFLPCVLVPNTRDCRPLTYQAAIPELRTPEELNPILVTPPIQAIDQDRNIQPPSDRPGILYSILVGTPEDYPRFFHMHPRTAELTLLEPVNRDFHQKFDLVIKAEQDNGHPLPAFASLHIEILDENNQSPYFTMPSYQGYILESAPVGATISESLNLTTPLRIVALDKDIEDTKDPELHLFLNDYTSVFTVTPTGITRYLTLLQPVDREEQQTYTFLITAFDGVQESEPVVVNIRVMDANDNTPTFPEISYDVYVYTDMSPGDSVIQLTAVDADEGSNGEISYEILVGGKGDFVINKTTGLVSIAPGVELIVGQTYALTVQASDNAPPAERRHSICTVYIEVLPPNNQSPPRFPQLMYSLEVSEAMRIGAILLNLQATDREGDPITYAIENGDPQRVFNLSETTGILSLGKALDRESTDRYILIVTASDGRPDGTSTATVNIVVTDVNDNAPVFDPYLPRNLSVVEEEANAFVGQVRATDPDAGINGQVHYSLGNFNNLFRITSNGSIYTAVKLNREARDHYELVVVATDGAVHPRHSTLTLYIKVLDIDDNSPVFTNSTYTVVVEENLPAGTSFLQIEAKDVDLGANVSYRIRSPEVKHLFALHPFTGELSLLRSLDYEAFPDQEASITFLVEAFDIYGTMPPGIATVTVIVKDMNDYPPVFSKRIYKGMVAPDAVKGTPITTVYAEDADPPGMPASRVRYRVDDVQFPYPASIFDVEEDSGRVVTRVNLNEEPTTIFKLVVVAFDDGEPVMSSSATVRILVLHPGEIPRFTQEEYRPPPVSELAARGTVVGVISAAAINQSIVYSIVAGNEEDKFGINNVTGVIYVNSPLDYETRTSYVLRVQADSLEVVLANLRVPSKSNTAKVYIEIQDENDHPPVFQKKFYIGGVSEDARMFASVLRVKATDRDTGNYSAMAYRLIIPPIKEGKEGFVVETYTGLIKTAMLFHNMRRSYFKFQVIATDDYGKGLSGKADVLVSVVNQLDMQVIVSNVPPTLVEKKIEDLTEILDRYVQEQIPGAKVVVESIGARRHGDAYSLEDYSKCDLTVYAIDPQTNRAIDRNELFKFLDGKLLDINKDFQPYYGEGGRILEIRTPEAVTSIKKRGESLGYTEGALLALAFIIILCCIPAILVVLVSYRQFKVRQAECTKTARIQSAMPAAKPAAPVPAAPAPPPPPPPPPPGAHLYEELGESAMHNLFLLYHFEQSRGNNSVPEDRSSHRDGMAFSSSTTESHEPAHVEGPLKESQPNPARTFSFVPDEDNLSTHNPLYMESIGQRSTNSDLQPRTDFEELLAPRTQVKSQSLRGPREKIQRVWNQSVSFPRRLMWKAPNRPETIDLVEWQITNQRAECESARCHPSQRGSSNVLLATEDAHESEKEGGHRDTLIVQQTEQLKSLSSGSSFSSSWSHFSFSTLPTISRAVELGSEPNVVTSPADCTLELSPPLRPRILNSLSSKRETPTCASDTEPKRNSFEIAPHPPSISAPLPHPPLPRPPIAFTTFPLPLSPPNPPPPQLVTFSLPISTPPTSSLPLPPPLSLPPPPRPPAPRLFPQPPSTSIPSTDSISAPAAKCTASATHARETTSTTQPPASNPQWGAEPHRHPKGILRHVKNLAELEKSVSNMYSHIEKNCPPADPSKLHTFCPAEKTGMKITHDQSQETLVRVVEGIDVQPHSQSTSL

Substance | effect of a mutation on the interaction (pcd15_mouse Pcdh15) | effect of a mutation on the interaction (Cdh23, Q99PF4-1)
Cadherin-23 (Mus musculus), Q99PF4-1 R27I | decreasing interaction | 
Protocadherin-15 (Mus musculus), Q99PJ1 E35I;D36A |  | decreasing interaction
Cadherin-23 (Mus musculus), Q99PF4-1 N26I;R27I | decreasing interaction | 
Cadherin-23 (Mus musculus), Q99PF4-1 N26I | decreasing interaction | 
